Source: article PMC7170509, “Substrate recognition and ATPase activity of the E. coli cysteine/cystine ABC transporter YecSC-FliY” (The Journal of Biological Chemistry, 2020)

Key:
FliY [1] = target: T1, FliY (Escherichia coli, UniProt P0AEM9); experiment: isothermal titration calorimetry; assay type: binding
T1 construct: gene tcyJ; C-terminal His6 tag (pET21b); expressed in E. coli BL21-Gold(DE3), purified from osmotic shock extract; monomer

FliY [2] = target: T1, FliY; experiment: nanoDSF thermal shift; assay type: binding; conditions: 30 μM FliY, 200 μM ligand; 50 mM Tris-HCl pH 7.5, 250 mM NaCl
[3] = target: T2, YecSC, the E. coli cysteine/cystine ABC transporter (YecS transmembrane domain and YecC nucleotide-binding … (E. coli, UniProt P0AFT2 1-222; P37774 1-250); experiment: cell-based or functional assay
T2 sequence (looked up) 1: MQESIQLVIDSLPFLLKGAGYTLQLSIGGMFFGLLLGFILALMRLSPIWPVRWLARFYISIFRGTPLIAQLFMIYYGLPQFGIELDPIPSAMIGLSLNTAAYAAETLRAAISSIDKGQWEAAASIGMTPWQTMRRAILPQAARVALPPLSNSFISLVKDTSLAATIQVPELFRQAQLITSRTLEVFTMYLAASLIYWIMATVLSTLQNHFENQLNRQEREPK
T2 sequence (looked up) 2: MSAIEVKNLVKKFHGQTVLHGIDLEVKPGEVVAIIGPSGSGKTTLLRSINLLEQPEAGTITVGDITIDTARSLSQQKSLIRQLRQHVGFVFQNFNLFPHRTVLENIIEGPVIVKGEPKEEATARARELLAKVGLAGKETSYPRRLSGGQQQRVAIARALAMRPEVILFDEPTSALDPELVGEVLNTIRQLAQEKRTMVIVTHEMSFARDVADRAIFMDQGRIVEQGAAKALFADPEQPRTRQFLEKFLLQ

N[C@@H](CSSC[C@H](N)C(=O)O)C(=O)O [L-cystine]
Kd (FliY [1]): 9.3 ± 2.8 µM | dTm (FliY [2]): the L-enantiomer of its oxidized dimeric form (Cys-S-S-Cys, cystine) also led to thermostabilization of FliY

N[C@H](CS)C(=O)O [D-cysteine]
Kd (FliY [1]): 10 ± 3.4 µM

N[C@@H](CS)C(=O)O [L-cysteine]
Kd (FliY [1]): 14.4 ± 2.4 µM

B1: FliY, the substrate-binding protein (SBP) of the E. coli YecSC-FliY cysteine/cystine ABC import system (natural protein, UniProt P0AEM9 30-266, looked up)
chain: DEGLLNKVKERGTLLVGLEGTYPPFSFQGDDGKLTGFEVEFAQQLAKHLGVEASLKPTKWDGMLASLDSKRIDVVINQVTISDERKKKYDFSTPYTISGIQALVKKGNEGTIKTADDLKGKKVGVGLGTNYEEWLRQNVQGVDVRTYDDDPTKYQDLRVGRIDAILVDRLAALDLVKKTNDTLAVTGEAFSRQESGVALRKGNEDLLKAVNDAIAEMQKDGTLQALSEKWFGADVTK
apparent Km for FliY of the stimulation of ATP hydrolysis by 1 μM YecSC (0.25–20 μM FliY), in the absence of substrate (apo FliY) [3]: 10.3 µM | apparent Km for FliY of the stimulation of ATP hydrolysis by 1 μM YecSC (0.25–20 μM FliY), in the presence of 100 μM L-cystine (holo FliY) [3]: 1.1 µM | interaction ratio from the Michaelis–Menten fit of initial ATPase rates of YecSC against FliY concentration, without and with L-cystine [3]: 1 FliY:YecSC | stimulation of the ATPase activity of YecSC by FliY with L-cystine, over basal activity [3]: ~11 fold | stimulation of the ATPase activity of YecSC by substrate-free apo FliY, over basal activity [3]: ~3 fold
